# From the RNAGym collection of RNA variant scans (doi:10.7554/elife.80360)
# B1: Hairpin Ribozyme (parent)
# chain: GUCCUCUUUCACGUGCGCGUGAAAGAGAGAAGUGAACCAGAGAAACACACGUUGUGGUAUAUUACCUGGUA
# Variants of: B1
# Test: self-cleavage, relative activity (ratio to wild type); higher = more cleavage; co-transcriptional
row,Variant,self-cleavage
1,GUUCUCUUUCACGUGCGCGUGAAAGAGAGAAGUGAACCAGAGAAACACACGUUGUGGUAUAUUACCUGAUA [C3U G69A],0.16
2,GUUCUCUUUAACGUGCGCGUGAAAGAGAGAAGUGAACCAGAGAAACACACGUUGUGGUAUAUUACCUGGUA [C3U C10A],0.276
3,GUUCUCUUUUACGUGCGCGUGAAAGAGAGAAGUGAACCAGAGAAACACACGUUGUGGUAUAUUACCUGGUA [C3U C10U],0.454
4,GUCAUCUUUCACGUGCGCGUGAAAGAGAGAAGUGAACCAGAGAAACACACGUUGUGGUAUAUUACCUGGUA [C4A],0.218
5,GUUCUCUUUCACGUGCGCGUGAAAGAGACAAGUGAACCAGAGAAACACACGUUGUGGUAUAUUACCUGGUA [C3U G29C],0.106
6,GUUCUCUUUCACGUGCGCGUGAAAGAGAUAAGUGAACCAGAGAAACACACGUUGUGGUAUAUUACCUGGUA [C3U G29U],0.117
7,GUUCUCUUGCACGUGCGCGUGAAAGAGAGAAGUGAACCAGAGAAACACACGUUGUGGUAUAUUACCUGGUA [C3U U9G],0.337
8,GUCAUCUUUCACGUGCGCGUGAAAGAGGGAAGUGAACCAGAGAAACACACGUUGUGGUAUAUUACCUGGUA [C4A A28G],0.247
9,GUCAUCUUUCACGUGCGCGUGAAAGAGCGAAGUGAACCAGAGAAACACACGUUGUGGUAUAUUACCUGGUA [C4A A28C],0.0846
10,GUUCGCUUUCACGUGCGCGUGAAAGAGAGAAGUGAACCAGAGAAACACACGUUGUGGUAUAUUACCUGGUA [C3U U5G],0.318
11,GUCAUCUUUCACGUGCGCGUGACAGAGAGAAGUGAACCAGAGAAACACACGUUGUGGUAUAUUACCUGGUA [C4A A23C],0.222
12,GUUCUCUUUCACGUGCGCGUGAAAGAGAGAAGUGAACCAGAGAAACACACGUUGCGGUAUAUUACCUGGUA [C3U U55C],0.153
13,GUUCUCUUUCACGUGCGCGUGAAAGAGAGAAGUGAACCAGACAAACACACGUUGUGGUAUAUUACCUGGUA [C3U G42C],0.218
14,GUUCUCUUUCACGUGCGCGUGAAAGAGAGAAGUGAACCAGAGAAACACACGUUGUGGUAUAUUACCUGGUG [C3U A71G],0.653
15,GUUCUCUUUCACGUGCGCGUGAAAGAGAGAAGUGAACCAGAGAGACACACGUUGUGGUAUAUUACCUGGUA [C3U A44G],0.254
16,GUUCUCUUUCACGUGCGCGUGAAAGAGAGAAGUGAACCAGAGAAACACACGUUGUGGUAUAUUACAUGGUA [C3U C66A],0.0858
17,GUCAUCUUUCACGUGCGCGUGAAAGAGAGAAGUGAACCAGAGAGACACACGUUGUGGUAUAUUACCUGGUA [C4A A44G],0.0937
18,GUCAUCUUUCACGUGCGCGUGAAAGAGAGAAGUGAACCAGAGACACACACGUUGUGGUAUAUUACCUGGUA [C4A A44C],0.0924
19,GUUCUCUUUCACGUCCGCGUGAAAGAGAGAAGUGAACCAGAGAAACACACGUUGUGGUAUAUUACCUGGUA [C3U G15C],0.727

row,Variant,self-cleavage
1,GUUCUCUUUCACGUGCGCGUGAAAGAGAGAAGUGGACCAGAGAAACACACGUUGUGGUAUAUUACCUGGUA [C3U A35G],0.717
2,GUCAUCUUUCACGUGCGCGUGAAAGAGAGCAGUGAACCAGAGAAACACACGUUGUGGUAUAUUACCUGGUA [C4A A30C],0.0814
3,GUUCUCUUUCACGUGCGCGUGAAAGAGAGAAGUGAACCAGAGAAACACUCGUUGUGGUAUAUUACCUGGUA [C3U A49U],0.214
4,GUCAUCUUUCACGUGCGCGUGAAAGAGAGAAGUGAACCAGAGAAACACACGUUGUGGUAUUUUACCUGGUA [C4A A61U],0.122
5,GUCAUCUUUCACGUGCGCGUGAAAGAGAGAAGUGAACCAGAGAAACACACGUUGUGGUAUGUUACCUGGUA [C4A A61G],0.279
6,GUCAUCUUUCACGUGCGCGUGAAAGAGAGAAGUGAACCAGAGAAACACACGUUGUGGUAUCUUACCUGGUA [C4A A61C],0.173
7,GUUCUCUUUCAUGUGCGCGUGAAAGAGAGAAGUGAACCAGAGAAACACACGUUGUGGUAUAUUACCUGGUA [C3U C12U],0.345
8,GUUCUCUUUCACGUGCGCGUGAAAGAGAGAAGUGAACCAGAGAAACACACGUUGUGGAAUAUUACCUGGUA [C3U U58A],0.257
9,GUUCUCUUUCACGUGCGCGUGAAAGAGAGAAGUGAACCAGAGAAACACACGUUGUGGUAUAUUUCCUGGUA [C3U A64U],0.238
10,GUUCUCUUUCACGUGCGCGUGAAAGAGAGAAGUGAACCAGAGAAACACACGUUGUGGUAUAUUCCCUGGUA [C3U A64C],0.0981
11,GUUCUCUUUCACGUGAGCGUGAAAGAGAGAAGUGAACCAGAGAAACACACGUUGUGGUAUAUUACCUGGUA [C3U C16A],0.462
12,GUUCUCUUUCACGUGCGCGUGAAAGAGAGAAGUGAACCAGAGAAACACACGUUGUGGUAAAUUACCUGGUA [C3U U60A],0.446
13,GUUCUCUUUCACGUGCGCGUGAAAGAGAGAAGUCAACCAGAGAAACACACGUUGUGGUAUAUUACCUGGUA [C3U G34C],1.03
14,GUUCUCUUUCACGUGCGCGUGAAAGAGAGAAGUGAACCAGAGAAACACACGUUGUGGUAUAUUACCAGGUA [C3U U67A],0.0952
15,GUCAUCUUUCACGUGCGCGUGAACGAGAGAAGUGAACCAGAGAAACACACGUUGUGGUAUAUUACCUGGUA [C4A A24C],0.137
16,GUCAUCUUUCACGUGCGCGUGAAAGAGAGAAGUGAACCAGAGCAACACACGUUGUGGUAUAUUACCUGGUA [C4A A43C],0.0588
17,GUUCUCUUUCACGUGCGCGUGAAAGAGAGAAGUGAACCAGAGAAACACACGUGGUGGUAUAUUACCUGGUA [C3U U53G],0.517
18,GUUCUCUUUCACGUGCGCGUGAAAGAGAGAAGUGAACCAGAGAAACACACGUUGUGGUAUACUACCUGGUA [C3U U62C],0.23
19,GUCAUCUUUCACGUGCGCGUGAAAGAGAGAAGUGAACCAGAGAAACACACGUUGUGGUGUAUUACCUGGUA [C4A A59G],0.145
